# According to patent publication US12679878B2, “CRF2 receptor agonists and their use in therapy” (SANOFI, priority 2020, dated 2026):
# Starred links: 1 amine or outer side, 2 acyl side, 3 side chain; linkers in the order of their positions; H or OH if unused. Non-standard residues stand in square brackets, D forms with d. Groups on a side chain read outwards from the residue. No end group written: not given here. *: point of attachment. C20 diacid = O=C(O)CCCCCCCCCCCCCCCCCCC(=O)*; C16 diacid = O=C(O)CCCCCCCCCCCCCCC(=O)*; γGlu = O=C(O)[C@H](CCC(=O)[*:2])N[*:1]; Palmitoyl = CCCCCCCCCCCCCCCC(=O)*; AEEA = NCCOCCOCC(=O)O; Aib = CC(C)(N)C(=O)O
# T1: CRF1R receptor (anti-target) (UniProt P34998 24-415, limits assumed)
# T1 sequence (looked up): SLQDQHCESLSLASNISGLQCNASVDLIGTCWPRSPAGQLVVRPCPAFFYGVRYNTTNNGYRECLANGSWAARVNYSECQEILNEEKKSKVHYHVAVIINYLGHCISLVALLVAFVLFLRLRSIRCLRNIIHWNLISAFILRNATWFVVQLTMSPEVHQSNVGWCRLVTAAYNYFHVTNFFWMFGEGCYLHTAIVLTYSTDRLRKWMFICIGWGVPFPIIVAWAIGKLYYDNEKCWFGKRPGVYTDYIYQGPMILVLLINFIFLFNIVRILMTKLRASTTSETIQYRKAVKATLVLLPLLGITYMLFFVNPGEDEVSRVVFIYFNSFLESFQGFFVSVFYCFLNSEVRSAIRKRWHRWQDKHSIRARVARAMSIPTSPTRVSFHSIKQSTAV
# B1: peptide of SEQ ID NO: 223 (peptide)
# peptide: IVLSLD[dV]PTKLK([γGlu-Palmitoyl])QKLLKQERQRKEREQAEKNKRILERV-NH2
# modifications: N-terminus assumed
# SMILES: CCCCCCCCCCCCCCCC(=O)N[C@@H](CCC(=O)NCCCC[C@H](NC(=O)[C@H](CC(C)C)NC(=O)[C@H](CCCCN)NC(=O)[C@@H](NC(=O)[C@@H]1CCCN1C(=O)[C@H](NC(=O)[C@H](CC(=O)O)NC(=O)[C@H](CC(C)C)NC(=O)[C@H](CO)NC(=O)[C@H](CC(C)C)NC(=O)[C@@H](NC(=O)[C@@H](N)[C@@H](C)CC)C(C)C)C(C)C)[C@@H](C)O)C(=O)N[C@@H](CCC(N)=O)C(=O)N[C@@H](CCCCN)C(=O)N[C@@H](CC(C)C)C(=O)N[C@@H](CC(C)C)C(=O)N[C@@H](CCCCN)C(=O)N[C@@H](CCC(N)=O)C(=O)N[C@@H](CCC(=O)O)C(=O)N[C@@H](CCCNC(=N)N)C(=O)N[C@@H](CCC(N)=O)C(=O)N[C@@H](CCCNC(=N)N)C(=O)N[C@@H](CCCCN)C(=O)N[C@@H](CCC(=O)O)C(=O)N[C@@H](CCCNC(=N)N)C(=O)N[C@@H](CCC(=O)O)C(=O)N[C@@H](CCC(N)=O)C(=O)N[C@@H](C)C(=O)N[C@@H](CCC(=O)O)C(=O)N[C@@H](CCCCN)C(=O)N[C@@H](CC(N)=O)C(=O)N[C@@H](CCCCN)C(=O)N[C@@H](CCCNC(=N)N)C(=O)N[C@H](C(=O)N[C@@H](CC(C)C)C(=O)N[C@@H](CCC(=O)O)C(=O)N[C@@H](CCCNC(=N)N)C(=O)N[C@H](C(N)=O)C(C)C)[C@@H](C)CC)C(=O)O
# B2: peptide of SEQ ID NO: 197 (peptide)
# peptide: IVLSLD[dV]PIKLK([γGlu-C16 diacid])QILLKQARQK[Aib]QRAQAEKNKRILERV-NH2
# modifications: N-terminus assumed
# SMILES: CC[C@H](C)[C@H](N)C(=O)N[C@H](C(=O)N[C@@H](CC(C)C)C(=O)N[C@@H](CO)C(=O)N[C@@H](CC(C)C)C(=O)N[C@@H](CC(=O)O)C(=O)N[C@@H](C(=O)N1CCC[C@H]1C(=O)N[C@H](C(=O)N[C@@H](CCCCN)C(=O)N[C@@H](CC(C)C)C(=O)N[C@@H](CCCCNC(=O)CC[C@H](NC(=O)CCCCCCCCCCCCCCC(=O)O)C(=O)O)C(=O)N[C@@H](CCC(N)=O)C(=O)N[C@H](C(=O)N[C@@H](CC(C)C)C(=O)N[C@@H](CC(C)C)C(=O)N[C@@H](CCCCN)C(=O)N[C@@H](CCC(N)=O)C(=O)N[C@@H](C)C(=O)N[C@@H](CCCNC(=N)N)C(=O)N[C@@H](CCC(N)=O)C(=O)N[C@@H](CCCCN)C(=O)NC(C)(C)C(=O)N[C@@H](CCC(N)=O)C(=O)N[C@@H](CCCNC(=N)N)C(=O)N[C@@H](C)C(=O)N[C@@H](CCC(N)=O)C(=O)N[C@@H](C)C(=O)N[C@@H](CCC(=O)O)C(=O)N[C@@H](CCCCN)C(=O)N[C@@H](CC(N)=O)C(=O)N[C@@H](CCCCN)C(=O)N[C@@H](CCCNC(=N)N)C(=O)N[C@H](C(=O)N[C@@H](CC(C)C)C(=O)N[C@@H](CCC(=O)O)C(=O)N[C@@H](CCCNC(=N)N)C(=O)N[C@H](C(N)=O)C(C)C)[C@@H](C)CC)[C@@H](C)CC)[C@@H](C)CC)C(C)C)C(C)C
# B3: peptide of SEQ ID NO: 195 (peptide)
# peptide: IVLSLD[dV]PIGLK([γGlu-C16 diacid])QILLKQERQKK[Aib]RQQAETNKRILERV-NH2
# modifications: N-terminus assumed
# SMILES: CC[C@H](C)[C@H](N)C(=O)N[C@H](C(=O)N[C@@H](CC(C)C)C(=O)N[C@@H](CO)C(=O)N[C@@H](CC(C)C)C(=O)N[C@@H](CC(=O)O)C(=O)N[C@@H](C(=O)N1CCC[C@H]1C(=O)N[C@H](C(=O)NCC(=O)N[C@@H](CC(C)C)C(=O)N[C@@H](CCCCNC(=O)CC[C@H](NC(=O)CCCCCCCCCCCCCCC(=O)O)C(=O)O)C(=O)N[C@@H](CCC(N)=O)C(=O)N[C@H](C(=O)N[C@@H](CC(C)C)C(=O)N[C@@H](CC(C)C)C(=O)N[C@@H](CCCCN)C(=O)N[C@@H](CCC(N)=O)C(=O)N[C@@H](CCC(=O)O)C(=O)N[C@@H](CCCNC(=N)N)C(=O)N[C@@H](CCC(N)=O)C(=O)N[C@@H](CCCCN)C(=O)N[C@@H](CCCCN)C(=O)NC(C)(C)C(=O)N[C@@H](CCCNC(=N)N)C(=O)N[C@@H](CCC(N)=O)C(=O)N[C@@H](CCC(N)=O)C(=O)N[C@@H](C)C(=O)N[C@@H](CCC(=O)O)C(=O)N[C@H](C(=O)N[C@@H](CC(N)=O)C(=O)N[C@@H](CCCCN)C(=O)N[C@@H](CCCNC(=N)N)C(=O)N[C@H](C(=O)N[C@@H](CC(C)C)C(=O)N[C@@H](CCC(=O)O)C(=O)N[C@@H](CCCNC(=N)N)C(=O)N[C@H](C(N)=O)C(C)C)[C@@H](C)CC)[C@@H](C)O)[C@@H](C)CC)[C@@H](C)CC)C(C)C)C(C)C
# B4: peptide of SEQ ID NO: 193 (peptide)
# peptide: IVLSLD[dV]PIGLK([γGlu-C16 diacid])QILLKQERQKK[Aib]REQAETNKRILERV-NH2
# modifications: N-terminus assumed
# SMILES: CC[C@H](C)[C@H](N)C(=O)N[C@H](C(=O)N[C@@H](CC(C)C)C(=O)N[C@@H](CO)C(=O)N[C@@H](CC(C)C)C(=O)N[C@@H](CC(=O)O)C(=O)N[C@@H](C(=O)N1CCC[C@H]1C(=O)N[C@H](C(=O)NCC(=O)N[C@@H](CC(C)C)C(=O)N[C@@H](CCCCNC(=O)CC[C@H](NC(=O)CCCCCCCCCCCCCCC(=O)O)C(=O)O)C(=O)N[C@@H](CCC(N)=O)C(=O)N[C@H](C(=O)N[C@@H](CC(C)C)C(=O)N[C@@H](CC(C)C)C(=O)N[C@@H](CCCCN)C(=O)N[C@@H](CCC(N)=O)C(=O)N[C@@H](CCC(=O)O)C(=O)N[C@@H](CCCNC(=N)N)C(=O)N[C@@H](CCC(N)=O)C(=O)N[C@@H](CCCCN)C(=O)N[C@@H](CCCCN)C(=O)NC(C)(C)C(=O)N[C@@H](CCCNC(=N)N)C(=O)N[C@@H](CCC(=O)O)C(=O)N[C@@H](CCC(N)=O)C(=O)N[C@@H](C)C(=O)N[C@@H](CCC(=O)O)C(=O)N[C@H](C(=O)N[C@@H](CC(N)=O)C(=O)N[C@@H](CCCCN)C(=O)N[C@@H](CCCNC(=N)N)C(=O)N[C@H](C(=O)N[C@@H](CC(C)C)C(=O)N[C@@H](CCC(=O)O)C(=O)N[C@@H](CCCNC(=N)N)C(=O)N[C@H](C(N)=O)C(C)C)[C@@H](C)CC)[C@@H](C)O)[C@@H](C)CC)[C@@H](C)CC)C(C)C)C(C)C
# B5: peptide of SEQ ID NO: 196 (peptide)
# peptide: IVLSLD[dV]PIGLK([γGlu-C16 diacid])QILLKQERQKK[Aib]REQAEKNKRILERV-NH2
# modifications: N-terminus assumed
# SMILES: CC[C@H](C)[C@H](N)C(=O)N[C@H](C(=O)N[C@@H](CC(C)C)C(=O)N[C@@H](CO)C(=O)N[C@@H](CC(C)C)C(=O)N[C@@H](CC(=O)O)C(=O)N[C@@H](C(=O)N1CCC[C@H]1C(=O)N[C@H](C(=O)NCC(=O)N[C@@H](CC(C)C)C(=O)N[C@@H](CCCCNC(=O)CC[C@H](NC(=O)CCCCCCCCCCCCCCC(=O)O)C(=O)O)C(=O)N[C@@H](CCC(N)=O)C(=O)N[C@H](C(=O)N[C@@H](CC(C)C)C(=O)N[C@@H](CC(C)C)C(=O)N[C@@H](CCCCN)C(=O)N[C@@H](CCC(N)=O)C(=O)N[C@@H](CCC(=O)O)C(=O)N[C@@H](CCCNC(=N)N)C(=O)N[C@@H](CCC(N)=O)C(=O)N[C@@H](CCCCN)C(=O)N[C@@H](CCCCN)C(=O)NC(C)(C)C(=O)N[C@@H](CCCNC(=N)N)C(=O)N[C@@H](CCC(=O)O)C(=O)N[C@@H](CCC(N)=O)C(=O)N[C@@H](C)C(=O)N[C@@H](CCC(=O)O)C(=O)N[C@@H](CCCCN)C(=O)N[C@@H](CC(N)=O)C(=O)N[C@@H](CCCCN)C(=O)N[C@@H](CCCNC(=N)N)C(=O)N[C@H](C(=O)N[C@@H](CC(C)C)C(=O)N[C@@H](CCC(=O)O)C(=O)N[C@@H](CCCNC(=N)N)C(=O)N[C@H](C(N)=O)C(C)C)[C@@H](C)CC)[C@@H](C)CC)[C@@H](C)CC)C(C)C)C(C)C
# B6: peptide of SEQ ID NO: 190 (peptide)
# peptide: IVLSLD[dV]PIKLK([γGlu-C16 diacid])QILLKQERQKKQREQAEKNKQILEQV-NH2
# modifications: N-terminus assumed
# SMILES: CC[C@H](C)[C@H](N)C(=O)N[C@H](C(=O)N[C@@H](CC(C)C)C(=O)N[C@@H](CO)C(=O)N[C@@H](CC(C)C)C(=O)N[C@@H](CC(=O)O)C(=O)N[C@@H](C(=O)N1CCC[C@H]1C(=O)N[C@H](C(=O)N[C@@H](CCCCN)C(=O)N[C@@H](CC(C)C)C(=O)N[C@@H](CCCCNC(=O)CC[C@H](NC(=O)CCCCCCCCCCCCCCC(=O)O)C(=O)O)C(=O)N[C@@H](CCC(N)=O)C(=O)N[C@H](C(=O)N[C@@H](CC(C)C)C(=O)N[C@@H](CC(C)C)C(=O)N[C@@H](CCCCN)C(=O)N[C@@H](CCC(N)=O)C(=O)N[C@@H](CCC(=O)O)C(=O)N[C@@H](CCCNC(=N)N)C(=O)N[C@@H](CCC(N)=O)C(=O)N[C@@H](CCCCN)C(=O)N[C@@H](CCCCN)C(=O)N[C@@H](CCC(N)=O)C(=O)N[C@@H](CCCNC(=N)N)C(=O)N[C@@H](CCC(=O)O)C(=O)N[C@@H](CCC(N)=O)C(=O)N[C@@H](C)C(=O)N[C@@H](CCC(=O)O)C(=O)N[C@@H](CCCCN)C(=O)N[C@@H](CC(N)=O)C(=O)N[C@@H](CCCCN)C(=O)N[C@@H](CCC(N)=O)C(=O)N[C@H](C(=O)N[C@@H](CC(C)C)C(=O)N[C@@H](CCC(=O)O)C(=O)N[C@@H](CCC(N)=O)C(=O)N[C@H](C(N)=O)C(C)C)[C@@H](C)CC)[C@@H](C)CC)[C@@H](C)CC)C(C)C)C(C)C
# Target: T1, CRF1R receptor (anti-target)
# Test: cell-based or functional assay
"EC50 [nM] 0% HSA (cAMP, HTRF)",Emax (%) (100% = Sauvagine at 100 nM),Binder
82.8 nM,57.3%,B1
> 100 nM,52.6%,IVLSLD[dV]PTKLK([AEEA-AEEA-γGlu-C20 diacid])KKLLKQERKR[Aib]EREKAEKAARILERV-NH2 [peptide of SEQ ID NO: 224]
> 100 nM,24.4%,B2
> 100 nM,17.1%,B3
> 100 nM,8.77%,B4
> 100 nM,16.9%,B5
> 100 nM,12%,B6
